Some results are limits rather than exact numbers.

This series in a line: soluble fraction after stress (log2 fold change); higher = more stays soluble; pooled small domains, quantitative proteomics. The settings on record: stress: pH 4. Put shortly: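 Values are log2 fold changes, and higher ones mean more of the domain stayed soluble. Each fold change reflects the soluble amount of a domain after acid stress and is taken as a measure of aggregation propensity. The stress was pH 4, applied to pooled custom libraries of small protein domains analysed by high-throughput quantitative proteomics.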
Take “HMDYLYHNGKEIDQGSIMYKMEDYSDGIFELQSAKYADGTELDEKELEELESTQELIDWVMIDFVS”: the “soluble fraction (log2)” value was -1.99. The value for “HMDYNSYGLTERELELVDYVLKGYSRKEMAEASGLKVNTIGSYMKKIYRKLNIHNRTELKERFI” was -1.31.

In the case of “HMDYNYLVFVTNTGPRSIAVEDLEMTVSDGKLVVSSGADGETFDLSTLTKMYFSDAAVVSINDV”, the “soluble fraction (log2)” value is -1.14. “HMDYQYILVDVKDRIATVTINRPEYSNAFARESYYEIADAMNTLGARDDVGVIVITGAGKHFSAGGDIKRF”: the “soluble fraction (log2)” value is -0.652. With “HMDYYKILGLSTSATLDQIKKAFRQLAIEFHPDKNPNNPTAEDKFQRISEAYAVLSNPEKRAEYDRSY”, the “soluble fraction (log2)” value is -0.17. Turning to “HMEAAETAVVTGTIVNIRSGPTLDFEAFAQVKQGDRLPVLDKFYNWYYVKLPSGVNGWISGQLVRIEQ”, the “soluble fraction (log2)” value was -0.673. As for “HMEAELNSLVKTYENMKPKAAAQVFEELDMDVLLDVVERMKEKKLAPILAQVTPTRAKEITYELTQRR”, the “soluble fraction (log2)” value was -0.0962.

As for “HMEAFDYLGRRTRDLLERQGWTTVPLVRDAYLAVPGGERLLQVPGFGRKSLREVRRWLWLQIGDPRFE”, the “soluble fraction (log2)” value amounted to 0.114. In the case of “HMEAIYKKNKNLIHTVIRDNFPFLIDTADYEDAFQEGSIGLIRAIDRFDDGLEYKFSSYAYTAIRNQIA”, the “soluble fraction (log2)” value is -0.165. Turning to “HMEALGLSPRQVDVLRLLVEGRSNKMIMRELELSESTVKTHLQAIFRRLGVSSRTQAVVAAARLGL”, the “soluble fraction (log2)” value was -0.418. On to “HMEALSAREIEILQALETGASNRELAKMLFISEATVKTHLVHIYQKLGVGTRTAAITEARERRV”, for which the “soluble fraction (log2)” value is -0.237. As to “HMEANAYFDAYPDVAAEWARLSGSDEGKATLSAIGVTTPQQFAQYHYTTFGSKENRNAPVGYTP”, the “soluble fraction (log2)” value is -0.47. As for “HMEANPLTDREKEVLELVADGKNTKEIAQELSIKSGTVRNYISMILEKLEVKNRIEAITRSKEKGWF”, the “soluble fraction (log2)” value is -0.025. Turning to “HMEAPMPIFWRPQFRIGHDDIDADHRYLILLINTVELVLRFPDDPRNVELALTELRRYAEDHFEREER”, the “soluble fraction (log2)” value was determined as 0.0123. In the case of “HMEAQAHYDAIYKAHPNADSIAQSAEFKAWVDAQPSVVRNAYWQLFDPKEGGTAEQIVEVFDAFVKSS”, the “soluble fraction (log2)” value is -1.83. On to “HMEDDIRSSIRTLDQFISKNQITLSKDVKNYILQLLSNDRMVTINELEKIKIYYDSNENIDLDTVKILLN”, for which the “soluble fraction (log2)” value is -1.4. For “HMEDEEILNEIRHTEQYVYYFGNYIMEHHVSRGLSKEKVIASLARELQIEIADIREDFDGMIEQIKTNILN”, the “soluble fraction (log2)” value was -0.416.

Regarding “HMEDESSIERYLGSGAIKGIGPSLAARIVKKFGKDTFRIIEQEPERLAEIKGISERKAMEISTLMEEK”, the “soluble fraction (log2)” value was found to be 0.0126. As to “HMEDGRLPPPGTVLRREYKGRAVFVRVLPKGFEFEGEVYRSLSAIAAKVTGSHWNGFRFFGLHE”, the “soluble fraction (log2)” value was determined as 0.199. Turning to “HMEDHMVVFGKGGRITRLPDKATVLEYLDAANFFASRSSVVKVNGKLASLDQTLRDGDSIEIVD”, the “soluble fraction (log2)” value is -0.473.

Take “HMEDINAVLAENLRRLRESRRLSLDAVARLTGVSKSMLGQIERGEVNPTVSTMWKIAGGLKVNFTALFRRE”: the “soluble fraction (log2)” value was at least 0.43. Turning to “HMEDIQPSVIFQNNMIDGFKKFGVSFLQNRRNVNVNTLNGLASAGTYPKWQQLLVNKISYIDMLLSTGG”, the “soluble fraction (log2)” value was -0.137. With “HMEDKIIVTVPGEYHLERIDRFLAANLEEDLSRSLIQRYIRENLITVNGEAVRANYKVKTDDEILITFPQ”, the “soluble fraction (log2)” value was -1.04.

For “HMEDLAERLDNLSTMYAKMDPVRAAQVLLESKNKSENIEVLKRLKPKSLGLILENMPPREAYDYVSELQ”, the “soluble fraction (log2)” value turned out to be 0.0298. With “HMEDLGYVKVASQTAAIRKSAAVQAGQIGTVHEGETYRYLGEEEGWYLVEYNGQKAYISWDDGEL”, the “soluble fraction (log2)” value is -0.553. For “HMEDMMKALLDVVRAQHTATEGSEERPFDINDIIDMALNITGRPEEPEEQQELSDTIQKLAESLAPDIFP”, the “soluble fraction (log2)” value is -0.596. Take “HMEDNKLKNEIKNELVSHLEKPYSVEDLADALKYHGSAAFKLIVQELAILERERAVVVTHDGNFKINSS”: the “soluble fraction (log2)” value was -0.0181. Consider “HMEDPAVYYKILQIPPDASLSEIHRAFEKITSAWDPERYPHISSWKETSAKKLQEIRNAYEKLLILRETG”, for which the “soluble fraction (log2)” value was -0.00219. Regarding “HMEDPFLWVEKLGSSDWIEREESAEKLLEAGEASVEALRTALTHPDLEVRERVRELLSVISPL”, the “soluble fraction (log2)” value is -1.82. In the case of “HMEDPRVTEIKNLQQDLAKKFKPTQGPASASDAVERVTAITTVMTKVAALPEDLRSEAMQPGKKM”, the “soluble fraction (log2)” value was -0.0985.

Turning to “HMEDQFWQNRAEMALASARRAGRIVTYAEMADAADIPAPQRIHKLTLWLEATMRQDHASGQPLRAALV”, the “soluble fraction (log2)” value was -0.0778.

Turning to “HMEDQITNQQFTMTKQSILDLLVKKSYPPYELANELHLKKEEVLPIIRFLIAENEIHFKDGMLHLPH”, the “soluble fraction (log2)” value was -0.0688.

For “HMEDQLDSLKDIIYDYLENNELYYNDLQEFKKIIIENMEFIHPNLNHKLIDNNFFKLINFKLEYNF”, the “soluble fraction (log2)” value was -0.828.

Consider “HMEDSSSILNRMRKLIALLNRASEAYYKENKEIISNFEYDRLYDELLGLESRSNTVLSGSPTYKV”, for which the “soluble fraction (log2)” value was -1.21. With “HMEDTFEYPVSVNGKLRFKIELPVSMEKDEIRNIVLNDERAKKWLATGTLTNLIVVPNRIINIVIK”, the “soluble fraction (log2)” value came to 0.0025. Then “HMEDTSTLSIKHKIKELINQESPQAILSDDKLVELLAAQGIKIARRTIAKYRETMNIPTSAERKRQKRPP”, with 0.275; and “HMEDVTLSLVVGEDLDGERLDVFLTWKLDRTRSQVQALIRDGKVRLEQGQRARPSMVVRSGMGISVSLEPR”, with -1.11. In the case of “HMEDYYKILGVSKDASIDDIKKSYRKLSLQNHPDRNKSPQASENFAKINSAYEVLSDQRKKRQYDMQQSM”, the “soluble fraction (log2)” value is at least 0.43. For the sequence “HMEEAQWEFKWENTDSAEIHGPHSSSEMLKWQENSFFAKGVYVRKVGGDTTDFTDGKRIDFDLY”, the “soluble fraction (log2)” value was -1.69. Then “HMEEDPILVAQRFLNIFRQLHIFDQQRREEFNSMILALPPEIRGTFGVLPGGSVLQEYVDELEISKGMA”, with -1.33. On to “HMEEDPVISQAQRQALFKLAHDHFGQEEGNKVILRLIGEHGLRSTTNMTASVYKTVTDALIQVIESMVEG”, for which the “soluble fraction (log2)” value was -0.444. On to “HMEEEDELALFLREERKNYDLTLTDVHEKTGIPQKVLKEFQWGDAQLTDRQRYTLTQYVEEAREYFQENA”, for which the “soluble fraction (log2)” value was -0.998. Then “HMEEEVKVPKIKGLTEAEAKAKLKSEGLESGTARSAYSDTVEEGHIISQSIQEGTKVPKGTAVSYEVSKGK”, with 0.22; and “HMEEGKVKRMAMDMVDAFYDKVSAMVDDNNDLGRSVVDAWDDEEENPPEYMLDDETRAILVNAGKIEPE”, with 0.0884; and “HMEEHSLRKQEMLRIIEALEQLTPKEKTVVVLYYFKGVLFKDIAMLLDVTEGRISQLHTAAMGRLKKLMD”, with -0.632. As for “HMEEIDLTPAEEILNKLPDNSRGYLIPTLNKIQNAYRFLPDPAMELLMEFFNVSRAEIFGVISFYPQLMI”, the “soluble fraction (log2)” value is -0.533. As for “HMEEIPYGVISAKAGAAAYDYIKKSIELGIEKKIDGVATAPIQKEAIHMAGISYIGHTEMYQGIT”, the “soluble fraction (log2)” value is 0.0683. Then “HMEEKEIGQTLSVKIRENVLSKLDMTRDLEDEEVKHIIEHEIWLAAKKHYISLEERNSIKRGIFNSL”, with -0.773.

As to “HMEELELTIDGEMVGRIDKQLGHHFDQFSRSQIQHWIEDGHVLVNGKQVKPKYKLLVGDHVQIIPEEPQK”, the “soluble fraction (log2)” value amounted to 0.223. For “HMEELIIQEELANKRLDIAISLLFPELTRAHAQKLIKEGSVLVDGKPRKASYPLTAGKRLSVTLPEPE”, the “soluble fraction (log2)” value was -0.0497. With “HMEELPVLHLKHVVVEGESLWKLAEQYLNDGTRWQEIYMLNRENISNPDLIREGQELNIQFLQGE”, the “soluble fraction (log2)” value is -1.05. As to “HMEENIKKDIEVPNIEGLTIDEAKKRLKEVNLNISIEDMEEKEGTEIITQQLPKAGIKVKEGVAIIAY”, the “soluble fraction (log2)” value was -0.211. Take “HMEEPEFEPYVVRLTAIALNVRTGPGTQYPVAMVIRGGGAFTIVAEENGFGLLKSGAGWIMLQHTERV”: the “soluble fraction (log2)” value was -0.427. With “HMEEQELQLIQFPIASGSAWAGKAVRELILPPETLLVMLIRGTETMIPKGDTMVQEGDTAVLSASAYRDD”, the “soluble fraction (log2)” value is -1.61. Then “HMEEQKYEYHLGDVVYLGVDKYEILGITNNIVTLYDPEFPLLNKQLDFDEFEKRVKDNYANEHLKVT”, with -0.545; and “HMEERDMKGSISDLVERYADQLTDEQLEEIVLGIKNGLLEEDVKSYFFLPAEDMRRIRTALEQVR”, with -1.6. Then “HMEESEMIAFATVAHRIVGKPVEAVMRSYRNRDNIPADIAAIVSSKFTFSVTMAEASYRNPKKSYQVNSII”, with 0.22.

Consider “HMEETLLLRESVRSALAMLAPTLRITLEMYVYRQLSPTEIALRSGVSISMVRRRLGYGLYKLRTQLIDA”, for which the “soluble fraction (log2)” value was -0.394. Consider “HMEFEIGQEDSKKSVKQFLYNTLRLSHGQVTALKRQERGILLNGERVFVTALLQEGDRLSLLLE”, for which the “soluble fraction (log2)” value was -1.24. With “HMEFFIIDHNGQQAGPFSFDQLVQKGISPETLVWKQGMADWNPAWKVEELKAVLEAVEANQSNQKAQ”, the “soluble fraction (log2)” value is -1.3.

Regarding “HMEFGEVLAQLRQKRHISQAELGRAIFVSGGTISNYEKGVHFPDVEKLLLLADYFNVTTDYLLGRT”, the “soluble fraction (log2)” value was -0.169. Take “HMEFNQAVQDVNELSMQYAKSDVLWPEFEPKVLAFAKNELSQMPPNQWKFALQTFYNGLKQAA”: the “soluble fraction (log2)” value was -0.0767. Regarding “HMEFPLSPHQYSVLRLMAQGLSNKQIAERLFLSENTVKGYVQEVLRRLGARNRLEAVMIANRRGWL”, the “soluble fraction (log2)” value is -0.606. Turning to “HMEFPYISGVDVGTISNKEFARFETTKASDIVIALDKSGIPFSARFGDSEIVLTYDGSYKEEVEEIIAKV”, the “soluble fraction (log2)” value is -0.115. For the sequence “HMEFSYMDQGLERYRAFLETHGHGNVPESYHELKLVNFVAHIRKLYRMNLLSEERRRALDEAGFVF”, the “soluble fraction (log2)” value is -1.24.

“HMEFVEERRNRMLDYIGENKRADVPELARHFDVTEVTIRRDLLILEQDGKLIRTHGGAMINR”: the “soluble fraction (log2)” value was -0.278. As to “HMEGDKEIPNVIGKSINDAKKILEQAGLKLGEVKKVNDSSVAKNVVLSTNPNAGTKVSAGDAVSITVAEG”, the “soluble fraction (log2)” value was 0.278.

Regarding “HMEGGLIMDRIEKGLQSGVMPDLRGLNLKDALYLLESYVQVQVIGSGGVIKQSIKTGDKFIMGSVIKLEL”, the “soluble fraction (log2)” value amounted to 0.041.

(Values after the domain aggregation screens of Martell et al. (2025).)
